How the values were obtained:
Test in all cases: pull-down binding Z-score (relative to library population); higher = stronger binding
[1] = test system: G-clamp-N3 (biotin conjugate); details: RNA library: Library-1 (pre-miRNA loops + repeats)
In short: (§1)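 An RNA library (1 μg) carrying a Cy5 or Cy3 end label was heat-folded in phosphate/NaCl/KCl buffer, then incubated for 60 min at 25 °C with streptavidin beads loaded with 100 pmol of biotin-conjugated small molecule. The beads were washed three times, and bound RNA was released in hot SDS and hybridised to a DNA barcode microarray for 20 h at 55.5 °C. Each binding score was derived by subtracting the signal from beads without compound, averaging the barcoded replicate probes after removing the highest and lowest, and expressing the result as a Z-score relative to the library mean and standard deviation.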

[2] = test system: TO-3-N3 (biotin conjugate); details: RNA library: Library-2
In short: as §1

[3] = test system: TO-3-N3-2 (biotin conjugate); details: RNA library: Library-2
In short: as §1

TO-N3 (biotin conjugate) = details: RNA library: Library-2
In short: as §1

[4] = test system: TO-N3-2 (biotin conjugate); details: RNA library: Library-2
In short: as §1

| Sequence | pull-down binding Z-score [1] | pull-down binding Z-score [2] | pull-down binding Z-score [3] | pull-down binding Z-score (TO-N3 (biotin conjugate)) | pull-down binding Z-score [4] |
| --- | --- | --- | --- | --- | --- |
| GUGGAACUGACCUGCCCCCUUUCUC [hsa-mir-6817] | -1.77 | 0.152 | 0.124 | 0.517 | 0.882 |
| UCAGUUUUGUAGCAUCAAAACU [hsa-mir-4521] | -0.216 | -0.308 | -0.161 | -0.342 | -0.134 |
| CUGAGUAACUUGUGCUUAUAACUCAG [hsa-mir-5000] | 0.251 | 0.396 | 0.379 | 0.194 | -0.396 |
| AUGUGAUGUCACUGAGGAAAUCACAC [hsa-mir-216b] | 0.862 | -0.223 | -0.272 | -0.124 | -0.00778 |
| UCUGUUGCUUGAAAGAAGAGA [hsa-mir-526a-1] | 1.67 | 0.85 | -0.154 | 0.922 | 0.215 |
| UGUGGCCUGGGGGUUGAGGACCCCUGCUCUA [hsa-mir-645] | 1.32 | 0.874 | 0.303 | 1.74 | 2.75 |
| UAUAUACUGAUGUAAUUUUCCUUGGAUUUAUAUGCAGUACUGAG [hsa-mir-6130] | -0.931 | 0.00904 | 0.252 | 0.102 | -0.225 |
| GGGCAGAAAUAGAUGGCCU [hsa-mir-4270] | 2.97 | 1 | 0.429 | 1 | 1.07 |
| GGGUGUAUGGUAUAGGGGUAGCCU [hsa-mir-3137] | 3.31 | 2.13 | 1.54 | 2.5 | 2.42 |
| GUGUUUAUUUUUUACUAAAUAG [hsa-mir-4766] | -0.918 | -0.515 | 0.102 | -0.451 | -0.723 |
| UUCAGCCUAAAGCAAUGAGAAGCCUCUGAAAGGCUGA [hsa-mir-1827] | -0.0259 | -0.198 | -0.0588 | 0.212 | 0.76 |
| CUUCUUACUGCACCAGUGAAG [hsa-mir-5683] | -1.53 | -0.186 | -0.268 | -0.0796 | 0.131 |
| UCCUAGGCGGGUCGCUGCGGUACCUCCCUCCUGUCUGUGGCGGUGGGAUCCCGUGGCCGUGUUUUCCUGGUG [hsa-mir-663b] | -0.826 | -0.114 | -0.0831 | 0.683 | 1.55 |
| UGGGUUAAGCCGAGCUGG [hsa-mir-4507] | 1.25 | 0.478 | 0.297 | 0.872 | 1.05 |
| AGUGGUGCAAUCUCAGUUCACU [hsa-mir-3135a] | -0.112 | 0.121 | -0.238 | -0.0142 | -0.196 |
| UGGGUUUGAGUCUGAAUCAACUCA [hsa-mir-181b-2] | -0.649 | -0.728 | -0.254 | -0.805 | -0.572 |
| CAGUGGCAUCUGUCAUUG [hsa-mir-4663] | -0.635 | -0.159 | -0.425 | -0.508 | -0.784 |
| UUUGCCAUUAAAAGUAAUGCGGCCAA [hsa-mir-548o-2] | -1.43 | -0.219 | 0.0369 | -0.0582 | -0.13 |
| GGACGUCACCACCAUGGCC [hsa-mir-650] | -1.19 | 0.0495 | 0.247 | 0.232 | 0.358 |
